Results reported in publication PMC3064786.

Target: HMGA1a-FLAG (UniProt P17096 1-107)
Assay: EMSA

HMGA1a-FLAG, sequence (P17096 whole entry): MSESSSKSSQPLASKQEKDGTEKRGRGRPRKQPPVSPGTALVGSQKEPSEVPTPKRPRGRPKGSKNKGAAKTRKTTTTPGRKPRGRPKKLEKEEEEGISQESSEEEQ

B1: IL2-Rα promoter fragment (-136 to -76) (dsDNA)
DNA 1: ACCGCAAACTATATTGTCATCAAAAAAAAAAAAAAAAAAACACTTCCTATATTTGAGATG
DNA 2: CATCTCAAATATAGGAAGTGTTTTTTTTTTTTTTTTTTTGATGACAATATAGTTTGCGGT
B1: binds.
